Laboratory results: the supplement of paper PMC7125110
± gives the standard error. This sample holds only a part of the variants without activity.

B1: glmS ribozyme (parent)
chain: AUAAAAGCGCCAGAACUACAGAAAUGUAGUUGACGAGGAGGAGGUUUAUCGAAUUUUCGGCGGAUGCCUCCAAA

How the values were obtained:
Settings in all cases: with glucosamine-6-phosphate
[1] = variants of: B1; assay: self-cleavage kobs at 40 uM GlcN6P; higher = faster cleavage; RNA array
In short: (§1)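 Using a hybridised Cy3 probe at 37 °C, barcoded ribozyme variants transcribed in situ by E. coli RNA polymerase on sequenced MiSeq chips were monitored across tiles imaged over ~14 h. The flow contained glucosamine-6-phosphate from 40 μM to 10 mM in HEPES/KCl/Mg(OAc)2 buffer. Signals were normalised to baseline and to non-cleaving reference variants before per-tile medians were fit to one- or two-exponential decays to yield kobs. Weighted Michaelis–Menten fits across concentrations gave kcat and KM.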

[2] = variants of: B1; assay: self-cleavage kobs at 10000 uM GlcN6P; higher = faster cleavage; RNA array
In short: as §1

[3] = variants of: B1; assay: self-cleavage kobs at 2500 uM GlcN6P; higher = faster cleavage; RNA array
In short: as §1

[4] = variants of: B1; assay: self-cleavage kobs at 640 uM GlcN6P; higher = faster cleavage; RNA array
In short: as §1

[5] = variants of: B1; assay: self-cleavage kobs at 160 uM GlcN6P; higher = faster cleavage; RNA array
In short: as §1

Row | Variant | self-cleavage kobs at 40 uM GlcN6P [1] | self-cleavage kobs at 10000 uM GlcN6P [2] | self-cleavage kobs at 2500 uM GlcN6P [3] | self-cleavage kobs at 640 uM GlcN6P [4] | self-cleavage kobs at 160 uM GlcN6P [5]
1 | AUAAAAACGCCUGAACUACAGAAAUGUAGUUGACGAGGAGGAGGUUUAUCGUAUUUUCGGCGGAUGCCUCCAAA [G7A A12U A52U] | < 1e-05 s⁻¹ | – | – | – | –
2 | AUAAAAACGCGAGAACUACAGAAAUGUAGUUGACGAGGAGGAGGUUUAUCGAAUUUUCGGCGGAUGCCACCAAA [G7A C11G U69A] | 0.000101 ± 2.8e-05 s⁻¹ | – | – | – | –
3 | AUAAAAACGCCCGAACUACAGAAAUGUAGUUGACGAGGAGGCGGUUUAACGAAUUUUCGCCGGAUGCCUCCAAA [G7A A12C A42C U49A G60C] | < 1e-05 s⁻¹ | < 1e-05 s⁻¹ | – | – | –
4 | AUAAAUGCGCCAGAACUACAGAAAUGUAGUUGACGAGGAGGAAGGUUAUCGAAUUUACUGCGGAUGCCUCCAAA [A6U G43A U45G U57A G59U] | < 1e-05 s⁻¹ | < 1e-05 s⁻¹ | – | – | –
5 | AUAAAACCGACAGAACUACAGAAAUGUAUUUGACGAGGAGGAGGUUUAUCGAAUUUUCGGCGGCUGCCUCCAAA [G7C C10A G29U A64C] | < 1e-05 s⁻¹ | < 1e-05 s⁻¹ | < 1e-05 s⁻¹ | – | –
6 | AUAAAACCGCCAGAACUACAGAAAUGUACUUGACGAGGAGGAGGUUUAUCGAAUUUUCGGCGGAUGCCUCCAAA [G7C G29C] | < 1e-05 s⁻¹ | < 1e-05 s⁻¹ | < 1e-05 s⁻¹ | < 1e-05 s⁻¹ | –
7 | AUAAAACCGCUAGAACUACAGAAAUGUAGUUGACGAGGAUGAGGUUUAUCGAAUUUUCGGCGGAUGCCUCAAAA [G7C C11U G40U C71A] | < 1e-05 s⁻¹ | < 1e-05 s⁻¹ | < 1e-05 s⁻¹ | < 1e-05 s⁻¹ | –
8 | AUAAAACCGCCAGAACUACAGAAAUGUAGUUGACUAGGAGGAGGUUUAUCGAAUUUUCGGCGGAUGCCUCCAAA [G7C G35U] | < 1e-05 s⁻¹ | – | < 1e-05 s⁻¹ | – | < 1e-05 s⁻¹
9 | AUAAAUGCGCCAGAACUACAGAAAUGUAGCUGACGAGGAGGAGGUUUAUCGAAUUCUCGGCGGAUGCCUCCAAA [A6U U30C U56C] | < 1e-05 s⁻¹ | – | – | – | –
10 | AUAAAAACGCCGGAACUACAGAAAUGUAGUUGACGAGGAGGAGGUUAAUCGAAUUUUCGGCGGAUGCCUCCAAA [G7A A12G U47A] | < 1e-05 s⁻¹ | – | < 1e-05 s⁻¹ | – | –
11 | AUAAAAACGCCAGAACUACAGAAAUGUAGUUGACGAGGAGGAGGUUUAUCGAAUUUUCGACGGAUGCCUCCAAA [G7A G60A] | < 1e-05 s⁻¹ | < 1e-05 s⁻¹ | – | < 1e-05 s⁻¹ | < 1e-05 s⁻¹
12 | AUAAAAACGGCAGAACUACAGAAAUGUAGUUGACGAGGAGGAGGUUUAUUGAAUUUUCGGCGGAUGCCUCCAAA [G7A C10G C50U] | < 1e-05 s⁻¹ | – | – | – | –
13 | AUAAAACCGCCAGAACUACAGAAAUGUAGUUGUCGAGGAGGAGGUUUUUCGAAUUUUCGGCGGAUGCCUCCAAA [G7C A33U A48U] | < 1e-05 s⁻¹ | – | – | – | –
14 | AUAAAAACGCCAGAACUACAGAAAUGUAGUUGACGAGGAGGAGGUUUAUUGAAUUUUCGGCGGAUGCCUCCAAA [G7A C50U] | < 1e-05 s⁻¹ | < 1e-05 s⁻¹ | < 1e-05 s⁻¹ | < 1e-05 s⁻¹ | < 1e-05 s⁻¹
15 | AUAAAACCGCCGGAACUACAGAAAUGUAGUUGACGAGGAGGAGGUUUAUCGAAUUUUCGGCGGAUGACUCCAAA [G7C A12G C67A] | < 1e-05 s⁻¹ | < 1e-05 s⁻¹ | – | – | –
16 | AUAAAAACGCCGGAACUACAGAAAUGUAGUUGACGAGGAGGAGGUUUAUCGAAUUUUCGGCGGAUGCCUCCAAA [G7A A12G] | < 1e-05 s⁻¹ | < 1e-05 s⁻¹ | < 1e-05 s⁻¹ | < 1e-05 s⁻¹ | –
17 | AUAAAAACGCCAGAACUACAGAAAUGUAGUUGACGAGGAGGAGGUUCAUCGAAUUUUCGGCGGAUGCCUCCAAA [G7A U47C] | < 1e-05 s⁻¹ | – | – | < 1e-05 s⁻¹ | < 1e-05 s⁻¹
18 | AUAAAAACGCCAGACCUACAGAAAUGUAGUUGACGAGGAGGAGGUUUAUUGAAUUUUCGGCGGAUGCCUACAAA [G7A A15C C50U C70A] | 0.000237 ± 4.9e-05 s⁻¹ | – | – | – | –
19 | AUAAAAACGCCAGAACUACAGAAAUGUAGUUGACGAGGAGGAGGUUUAUCGAAUUCUCGGCGGAUGUUUCCAAA [G7A U56C C67U C68U] | < 1e-05 s⁻¹ | – | – | < 1e-05 s⁻¹ | < 1e-05 s⁻¹
20 | AUAAAACCGCCAGAACUACAGAAAUGUAGUUGACGAGGAGGGGGUUUAUCGAAUUUUCGGCGGAUGCCUCCAAA [G7C A42G] | < 1e-05 s⁻¹ | < 1e-05 s⁻¹ | < 1e-05 s⁻¹ | < 1e-05 s⁻¹ | < 1e-05 s⁻¹
21 | AUAAAACCGCCAGAAAUACAGAAAUGUAGUUGACGAGGAGGAGGUUUAUCGAAUUUUCGGCGGAUGCCUCCAAA [G7C C16A] | < 1e-05 s⁻¹ | < 1e-05 s⁻¹ | < 1e-05 s⁻¹ | < 1e-05 s⁻¹ | < 1e-05 s⁻¹
22 | AUAAAAACGCCUGAACUACAGAAAUGUAGUUGCCGAGGAGGAGGUUUAUCGAAUUUUAGGCGGGUGCCUCCAAA [G7A A12U A33C C58A A64G] | < 1e-05 s⁻¹ | < 1e-05 s⁻¹ | – | – | –
23 | AUAAAUGCGCCAGAACUACAGAAAUGUAGUUGACGAGGAGGAGGUUUACCGAAUUUUCGGCGGAUGCCUCCAAA [A6U U49C] | < 1e-05 s⁻¹ | < 1e-05 s⁻¹ | < 1e-05 s⁻¹ | – | < 1e-05 s⁻¹
24 | AUAAAAACGCCAGAACUACAGAAAUGUAGUUGACGAGCAGGAGGUUUAUCGAAUUUUCGGCGGAUGCCUCCAAA [G7A G38C] | < 1e-05 s⁻¹ | < 1e-05 s⁻¹ | < 1e-05 s⁻¹ | < 1e-05 s⁻¹ | < 1e-05 s⁻¹
25 | AUAAAACCGCCAGAACUACAGAAAUGUAGUUGAGGAGGAGGAGGUUUAUCGAAUUUUCGGCGGAUGCCUCCAAA [G7C C34G] | < 1e-05 s⁻¹ | < 1e-05 s⁻¹ | < 1e-05 s⁻¹ | < 1e-05 s⁻¹ | < 1e-05 s⁻¹
26 | AUAAAAACGCCAGCACUACAGAAAUGUAGUUUACGAGGAAGAGGUUUAUCGAAUUUUCGGCGGAUGCCUCCAAA [G7A A14C G32U G40A] | < 1e-05 s⁻¹ | – | < 1e-05 s⁻¹ | – | –
